In article PMC3623637:

Key:
purified protein [1] = substrate: Cc1cc(=O)oc2cc(NC(=O)[C@@H](N)CC(=O)O)ccc12; experiment: purified protein; conditions: 50 mM Tris-HCl pH 7.5, 37°C
purified protein [2] = substrate: Cc1cc(=O)oc2cc(NC(=O)[C@@H](N)CCC(=O)O)ccc12; experiment: purified protein; conditions: 50 mM Tris-HCl pH 7.5, 37°C

B1: DNPP-1 (Caenorhabditis elegans) (protein)
chain: MAAALKPSAPEIRKAAQEFINYLNKAVTPFHATQEVKDRLLQAGFTELPESGHWDIQPTSKYFVTKNRSAILAFAVGGSYKPGSGFSIVVGHTDSPCLRVKPISHQKSDKFLQVGVSTYGGGIWRTWFDRDLSVAGLVIVKNGEKLQHKLIDVKKPVLFIPNLAIHLETDRTTFKPNTETELRPILETFAAAGINAPQKPESTGFADPRNITNNHHPQFLGLIAKEAGCQPEDIVDLDLYLYDTNKAAIVGMEDEFISGARLDNQVGTYTAISGLLESLTGESFKNDPQIRIAACFDNEEVGSDSAMGASSSFTEFVLRRLSAGGSTTAFEEAIGKSMLISADQAHATHPNYSAKHEENHRPAFHGGVVVKVNVNQRYATTSTTHAALKQVAFEAQVPLQVVVVRNDSPCGSTVGPILATKLGLQTVDVGCPQLAMHSIREFADTSSIYQATTLYSTFYERLSTVLSNMQ
Km (purified protein [1]): 13.58 10^-3 mM | kcat/Km (purified protein [1]): 10300 M⁻¹ s⁻¹ | kcat/Km (purified protein [2]): 15300 M⁻¹ s⁻¹
